The record followed here is paper PMC5481561, “The crystal structure of mammalian inositol 1,3,4,5,6-pentakisphosphate 2-kinase reveals a new zinc-binding site and key features for protein function” (The Journal of Biological Chemistry, 2017).

Changes are numbered by the printed parent chain. In names and notes the source's numbering stands.

Substrate in series [1]: O=P(O)(O)O[C@@H]1[C@@H](OP(=O)(O)O)[C@H](OP(=O)(O)O)[C@H](O)[C@H](OP(=O)(O)O)[C@H]1OP(=O)(O)O
As to the kind of experiment: HPLC of IP5-dependent ATP to ADP conversion. Format: biochemical, Mus musculus. Conditions: 50 μM ATP, 1 mM MgCl2, 20 mM Hepes, pH 7.3, 0.2–5 μM IP5.

Substrate in series [2]: O=P(O)(O)O[C@@H]1[C@@H](OP(=O)(O)O)[C@H](OP(=O)(O)O)[C@H](O)[C@H](OP(=O)(O)O)[C@H]1OP(=O)(O)O
As to the kind of experiment: HPLC of IP5-dependent ATP to ADP conversion. It is filed as biochemical, Mus musculus. Particulars: 50 μM ATP, 1 mM MgCl2, 20 mM Hepes, pH 7.3, 0.2–5 μM IP5. The source says: HPLC of IP5-dependent ATP to ADP conversion on LSLt-ΔC-mIP5 2-K | showing very similar kinetic parameters (Fig. 3A)
This is another data set of the same source.

B1: LSLt-ΔC-mIP5 2-K (Mus musculus) (protein)
chain: MEEGKMDENEWSYHGEGNKSLVVAHAQRCVVLRFLKFPPNKKKTSEEILQHLQNIVDFGKNVMKDFLGENYVHCGEVVQLPLEFVKQLCLKIQCERPESRCDKDLDTFSGYAMCLPNLTRLQTFHFAEHRPILCVEIKPKCGFIPFSNDVTHEMKHKVCRYCMHQHLKVATGKWKKISKYCPLDLYSGNKQRMHFALRSLLQETQNNLRIFKNGELIYGCGDARSPVADLKELAHHLKPFFFPSNGLASGPHCTKAVIRELVHVITRVLLSSSEKARAGALRLGLQGPRVCEASPFSRSLHNQGKNTSEHSGLPKGCLLYKTLQVQMLDQLDIEGLYPLYKRVEQYLEEFPEERKTLQIDGPYDEVFYQKLLDLSTEDDGTVAFALTKVQQYRVAMTAKDCSIMIALSPCLQGTSSDQRPVIPSSRSRLAFSVSVLDLDLKPYESIPHQYKLDSKIVNYYSKTVHAKD
notes: lacks the 21 C-terminal residues (stop codon at 469); LSLt (Laetiporus sulphureus lectin) tag kept; E. coli BL21 Star (DE3)
As for B1, the Km in series [1] is 0.29 µM.

B2: LSLt-ΔC-mIP5 2-K (Mus musculus; K173A) (protein)
chain: B1 chain with K173A
notes: as for B1
As to B2, in series [2], the Michaelis constant (Km) was determined as 0.2729 ± 0.0895 µM.
